{"source": "patent US20130096282A1", "about": "(LOSTAM BIOPHARMACEUTICALS, published 2013)", "binders": {"B1": {"name": "chimeric mAb LST-004 (antibody, V domains shown)", "VH": "EVMLVESGGGLVKPGGSLKLSCAASGFTFSTFTMSWVRQTPEKRLECVATINGGGGNTYYPDSVKGRFTISRDNAKNNLYLQMSSLRSEDTAFYFCSRLYGIYAMDYWGQGTSVTVSS", "VL": "DIVMTQSHIFMSTSVGDRVSITCKASQDVGSAVAWYQQKPGQSPKVLIYWTSTRHTGVPDRFAGSGSGTEFTLTISNVQSEDLADYFCQQYSSYPLTFGAGTKLELKR", "notes": "also called chimeric LST-004"}, "B2": {"name": "mouse monoclonal antibody LST-002 (antibody, V domains shown)", "VH": "B1 VH", "VL": "B1 VL", "notes": "Mouse monoclonal antibody; also called mouse LST-002; PaF4 IVE5 (ATCC HB9129)"}, "B3": {"name": "chimeric mAb LST-003 (antibody, V domains shown)", "VH": "DVQLQESGPGLVKPSQSLSLPCSVTGYSITSGYYWNWIRQFPGNKLEWMGYIRYDGNNNYNPSLKNRISITHDTSKNQFFLKLNYVTTEDTATYYCARGLQFYFDSWGQGTTLTVSS", "VL": "DIVMSQSPSSLAVSGGEKVTMSCKSSQSLLNGSYQKHTLAWYQQKPGQSPKLLIYWASTRESGVPDRFTGSGSGTDFTLTISSVKAEDLAVYYCQQYYSYPWTFGGGTKLEIKR", "notes": "also called chimeric LST-003; chimeric anti-flagella type A antibody"}, "B4": {"name": "dual-specific chimeric mAb LST-010 (bispecific antibody)", "heavy": "not shown", "light": "B3 VL", "notes": "also called dual-specific LST-010 mAb; not shown: human light constant domain (CL)"}, "B5": {"name": "mouse monoclonal antibody LST-001 (antibody, V domains shown)", "VH": "B3 VH", "VL": "B3 VL", "notes": "Mouse monoclonal antibody; also called mouse LST-001; FA6 IIG5 (ATCC HB9130)"}, "B6": {"name": "human monoclonal IgM antibody LST-007 (antibody, V domains shown)", "VH": "QVRLVQSGTEVKKPGASVRVSCKASGYTFSNYYMYWVRQAPGQGLEWMAMINPSGGSTRYAQKFQGRVTMTRDTSTSTVYMELSSLRSEDTAVYYCARADSGSYFGYWGQGTLVTVSS", "VL": "DIQLTQSPSFLSASVGDRVPITCRASQGISTHLAWYQQKPGKAPKLLIYAASTLQSGVPSRFSGSGSGTEFTLTISSLQPEDSATYYCQQLKSYPLTFGGGTKVEIKR", "notes": "Human IgM from an EBV-transformed lymphoblastoid cell line, tested as culture supernatant; also called 20H11 (ATCC CRL9300); human monoclonal IgM anti-flagella type B antibody"}, "B7": {"name": "fully human recombinant mAb LST-008 (antibody, V domains shown)", "VH": "B6 VH", "VL": "B6 VL", "notes": "Human IgG1 made in CHO-S cells; also called recombinant human LST-008"}}, "key": {"[1]": {"molecular_target": "T1, recombinantly-expressed P. aeruginosa flagellin type B (Pseudomonas aeruginosa, UniProt P72151 1-488)", "T1 construct": "also called PA flagellin type B; PA flagellin B", "T1 sequence": "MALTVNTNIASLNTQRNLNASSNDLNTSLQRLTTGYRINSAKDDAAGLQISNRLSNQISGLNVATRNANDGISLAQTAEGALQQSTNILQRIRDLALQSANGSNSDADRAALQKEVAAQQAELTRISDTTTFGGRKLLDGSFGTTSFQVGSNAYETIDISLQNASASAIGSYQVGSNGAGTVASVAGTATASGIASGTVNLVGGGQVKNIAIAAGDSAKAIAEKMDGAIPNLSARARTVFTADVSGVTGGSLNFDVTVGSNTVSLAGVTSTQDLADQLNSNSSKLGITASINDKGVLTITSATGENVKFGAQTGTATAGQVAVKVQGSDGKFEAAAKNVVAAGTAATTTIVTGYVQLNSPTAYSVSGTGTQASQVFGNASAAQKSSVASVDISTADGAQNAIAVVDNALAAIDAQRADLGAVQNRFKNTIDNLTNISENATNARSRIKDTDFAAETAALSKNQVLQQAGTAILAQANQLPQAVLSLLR", "experiment": "ELISA, plates coated with recombinant flagellin type B (250 ng/well), anti-human Fc-HRP"}, "[2]": {"molecular_target": "T1, recombinantly-expressed P. aeruginosa …", "experiment": "SPR (ProteOn XPR36), mAb amine-coupled to GLM chip, flagellin as analyte 5-80 nM, 1:1 model"}, "[3]": {"molecular_target": "T1, recombinantly-expressed P. aeruginosa …", "experiment": "ELISA on plates coated with purified flagellin type B"}, "[4]": {"molecular_target": "T2, flagellin type A of P. aeruginosa laboratory strain PAK (Pseudomonas aeruginosa, UniProt P21184 2-394)", "T2 construct": "whole, on cells; Tested on whole immobilized or formaldehyde-fixed bacteria (ELISA) and in blotted bacterial lysate (western blot)", "T2 sequence": "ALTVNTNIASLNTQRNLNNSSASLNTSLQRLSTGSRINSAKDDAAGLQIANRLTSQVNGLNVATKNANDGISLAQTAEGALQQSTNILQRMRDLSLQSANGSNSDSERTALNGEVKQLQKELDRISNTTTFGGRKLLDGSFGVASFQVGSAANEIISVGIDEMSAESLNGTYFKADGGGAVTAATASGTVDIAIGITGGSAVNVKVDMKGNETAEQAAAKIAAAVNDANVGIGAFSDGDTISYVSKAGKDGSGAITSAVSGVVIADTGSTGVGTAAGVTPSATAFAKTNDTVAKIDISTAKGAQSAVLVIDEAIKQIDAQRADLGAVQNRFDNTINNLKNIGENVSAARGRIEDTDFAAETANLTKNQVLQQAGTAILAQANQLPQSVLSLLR", "experiment": "ELISA on whole immobilized bacteria, single point"}, "[5]": {"molecular_target": "T3, recombinantly-expressed P. aeruginosa flagellin type A (Pseudomonas aeruginosa, UniProt P21184 2-394)", "T3 construct": "also called PA flagellin type A; PA flagellin A", "T3 sequence": "T2 sequence", "experiment": "ELISA, plates coated with recombinant flagellin type A (250 ng/well), anti-human Fc-HRP"}, "[6]": {"molecular_target": "T4, flagellin type B of P. aeruginosa laboratory strain PA01 (Pseudomonas aeruginosa, UniProt P72151 1-488)", "T4 construct": "whole, on cells; Tested on whole immobilized or formaldehyde-fixed bacteria (ELISA), in blotted lysate (western blot) and on live bacteria (motility)", "T4 sequence": "T1 sequence", "experiment": "immunoblot of P. aeruginosa lysates probed with LST-003, anti-human Fc peroxidase detection"}, "[7]": {"molecular_target": "T3, recombinantly-expressed P. aeruginosa …", "experiment": "SPR (ProteOn XPR36), mAb amine-coupled to GLM chip, flagellin as analyte 5-80 nM, 1:1 model"}, "[8]": {"molecular_target": "T3, recombinantly-expressed P. aeruginosa …", "experiment": "ELISA on plates coated with purified flagellin type A"}, "[9]": {"molecular_target": "T4, flagellin type B of P. aeruginosa …", "experiment": "immunoblot of P. aeruginosa lysates probed with LST-001, anti-mouse Fc peroxidase detection"}, "[10]": {"molecular_target": "T1, recombinantly-expressed P. aeruginosa …", "experiment": "ELISA, plates coated with recombinant flagellin type B at 5 µg/ml, anti-human Fc-HRP"}}}
{"binder": "B1", "values": [{"measurement": "EC50", "setting": "[1]", "value": "~0.3", "unit": "µg/mL"}, {"measurement": "Kd", "setting": "[2]", "value": 1.3, "unit": "nM"}, {"measurement": "EC50 (read off the curve)", "setting": "[3]", "value": "~1", "unit": "nM"}]}
{"binder": "B2", "values": [{"measurement": "Kd", "setting": "[2]", "value": 0.82, "unit": "nM"}, {"measurement": "binding result", "setting": "[4]", "value": "no binding (tested: 1:2 dilution, concentration not given)"}]}
{"binder": "B3", "values": [{"measurement": "EC50", "setting": "[5]", "value": "~0.065", "unit": "µg/mL"}, {"measurement": "binding result", "setting": "[6]", "value": "no binding (tested: 10 µg/ml)"}, {"measurement": "Kd", "setting": "[7]", "value": 3, "unit": "nM"}, {"measurement": "EC50 (read off the curve)", "setting": "[8]", "value": "~0.7", "unit": "nM"}]}
{"binder": "B4", "values": [{"measurement": "EC50 (read off the curve)", "setting": "[8]", "value": "~0.9", "unit": "nM"}]}
{"binder": "B5", "values": [{"measurement": "Kd", "setting": "[7]", "value": 0.6, "unit": "nM"}, {"measurement": "binding result", "setting": "[9]", "value": "no binding (tested: 10 µg/ml)"}]}
{"binder": "B6", "values": [{"measurement": "binding result", "setting": "[4]", "value": "no binding"}]}
{"binder": "B7", "values": [{"measurement": "Kd", "setting": "[2]", "value": 0.94, "unit": "nM"}, {"measurement": "EC50", "setting": "[10]", "value": "~0.01", "unit": "µg/mL"}]}
